Laboratory results published in patent US20240239907A1 (EDELWEISS IMMUNE, published 2024).

target: T1, human CXCR6 (human, UniProt O00574 1-342); assay: screening on cells overexpressing CXCR6, one single concentration, yes/no
T1 construct: also called hu-CXCR6; wild type human CXCR6
T1 sequence (O00574 whole entry): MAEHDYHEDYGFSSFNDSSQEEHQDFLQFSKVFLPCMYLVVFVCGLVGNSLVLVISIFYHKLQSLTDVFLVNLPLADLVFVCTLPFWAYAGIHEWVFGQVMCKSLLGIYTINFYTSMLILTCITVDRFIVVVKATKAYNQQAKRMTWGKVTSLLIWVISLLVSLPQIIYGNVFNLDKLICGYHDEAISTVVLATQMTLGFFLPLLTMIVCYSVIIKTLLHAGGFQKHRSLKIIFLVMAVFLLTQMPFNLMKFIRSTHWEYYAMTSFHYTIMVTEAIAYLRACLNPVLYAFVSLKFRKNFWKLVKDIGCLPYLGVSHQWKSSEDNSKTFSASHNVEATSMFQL

Binder	binding result
COXs-7A7 (antibody, V domains shown, Mouse-derived; tested at the screening stage) VH: EVQLMESGGGLVKPGGSRKLSCAASGFTFSDYGMHWVRQAPEKGLEWIAYINSGSSTIHYADSVKGRFTISRDNAKNTLFLQMTSLRSEDTAMYYCVRPGFAYWGQGTLITVSA VL: DIVMTQTPLTLSTTVGQSAFISCRSSQSLLHRNGNTYLNWFLQRPGQSPQLLVYEIFERKSGVPDRFSGSGSGTDFTLKISRVEAEDLGVYYCMQATYEPLTFGAGTKLELK	binds
COXs-7E6 (antibody, V domains shown, Mouse-derived; tested at the screening stage) VH: EVQLMESGGGLVKPGGSRKLSCAASGFTFSDHGMHWVRQAPEKGLEWIAYINSGSSTIHYADSVKGRFTISRDNAKNTLFLHMTSLRSEDTAMYYCVRPGFAYWGQGTLITVSA VL: DIVMTQTPLTLSITVGQSAFISCRSSQSLLHRNGNTYLNWFLQRPGQSPQLLVYEIFERKSGVPDRFSGSGSGTDFTLKISRVEAEDLGVYYCMQATYEPLTFGAGTKLELK	binds
COXs-2D2 (antibody, V domains shown, Mouse-derived) VH: EVQLVESGGGLVQPKGSLKLSCTASGFSFDTYAMNWVRQAPGKGLEWIARIRSKSKNYATYYADSVKDRFTISRDDSANILYLQMNNLKTEDTAIYYCLRQGSFDYWGQGTTLTVSS VL: DVVLTQTPLSLPVSLGDQASISCRSGQRIVHTDGNTYLYWYLQKPGQSPKLLIYRVSNRFSGVPDRFSGSGSGTDFTLKISRVEAEDMGIYYCFQGTHFPYTFGGGTKLEIK	binds
COXs-11E5 (antibody, V domains shown, Mouse-derived; tested at the screening stage) VH: EVQLVESGGGLVQPKGSLKLSCTASGFSFDTYAMNWVRQAPGKGLEWVARIRSKSKNYATYYADSVKDRFTVSRDDSANILYLQMNNLKTEDTAIYYCLRQGSFDYWGQGTTLTVSS VL: DVVMTQTPLSLPVSLGDQASISCRSSQRIVHTDGNTYLYWYLQKPGQSPKLLIYRVSNRFSGVPDRFSGSGSGTDFILKISRVEAEDMGIYYCFQGTHFPYTFGGGTKLEIK	binds
COXs-4H5 (antibody, V domains shown, Mouse-derived; tested at the screening stage) VH: EIQLVQSGPELKKPGKTVKISCKASGYTFTTYGMSWVKQAPGKALKWMGWINTYSGVPTYADDFKGRFAFSLETSASTAYLQINNLKNEDTATYFCAIRRLSITLHGMDYWGQGTSVTVS VL: DVVMTQSPLSLPVSLGDQASIYCRSSQRIVHSDGNTYLYWYLQRPGQSPKLLIYRVSNRFSGVPDRFSGSGSGTDFTLKISRVEAEDMGIYYCFQGTHFPYTFGGGTKLEIK	binds
COXs-2D4 (antibody, V domains shown, Mouse-derived; tested at the screening stage) VH: EVHLVESGGGLVQPKGSLKLSCTASGFSFDTYAMNWVRQAPGKGLEWIARIRSKSKNSATYYADSVKDRFTISRDDSANILYLQMNNLKTEDTAIYYCLRQGSFDYWGQGTTLTVSS VL: DVVMTQTPLSLPVSLGDQASISCRSSQRIVHTDGNTYLYWYLQKPGQSPKLLIYRVSNRFSGVPDRFSGSGSGTDFTLKITRVEAEDMGIYYCFQGTHFPYTFGGGTKLEIK	binds
COXs-9D6 (antibody, V domains shown, Mouse-derived; tested at the screening stage) VH: EVHLVESGGGLVQPKGSLKLSCTASGFSFDTYAMNWVRQAPGKGLEWVARIRSKSKNYATYYADSVTDRFTISRDDSANILYLQMNNLKTEDTAIYYCLSQGSFDYWGQGTTLTVSS VL: DVVMTQTPLSLPVSLGDQASISCRSSQRIVHTDGNTYLYWYLQKPGQSPKLLIYRVSNRFSGVPDRFSGSGSGTDFILKISRVEAEDMGIYYCFQGTHFPYTFGGGTKLEIK	binds
COXs-12E7 (antibody, V domains shown, Mouse-derived; tested at the screening stage) VH: EVHLVESGGGLVQPKGSLKLSCKASGFSFDTYAMNWVRQAPGKGLEWVARIRSKSKSYATYYADSVKDRFTISRDDSANILYLQMNNLKTEDTAIYYCLRQGSFDYWGQGTTLTVSS VL: DVVMTQTPLSLPVSLGDQASIYCRSSQRIVHSDGNTYLYWYLQRPGQSPKLLIYRVSNRFSGVPDRFSGSGSGTDFTLKISRVEAEDMGIYYCFQGTHFPYTFGGGTKLEIK	binds
COXs-11H4 (antibody, V domains shown, Mouse-derived; tested at the screening stage) VH: EVQLVESGGGLVQPKGSLKLSCAASGFTFNTYAMNWVRQVPGKGLEWIARMRSESKNFATYYADSVKDRFTISRDDSESILYLQMNNLKTEDTGMYYCVRQGNFDVWGTGTTVTVSS VL: DVVMTQAPLSLSVSLGDQASISCRSGQNIVHTDGNTYLYWSLQKPGQSPNLLIYKVSNRFSGVPDRFSGSGSGTDFTLKINRVEAEDMGVYYCFQLTHVPYTFGGGTKLEIK	binds
Beacon1-G12 (antibody, V domains shown, Mouse-derived) VH: EIQLVQSGPELKKPGKTVKISCKASGYTFTTYGMSWVKQAPGKALKWMGWINTYSGVPTYADDFKGRFAFSLETSASTAYLQINNLKNEDTATYFCAIRRLSITLHGMDYWGQGTSVTVS VL: DIQMTQSPASLSVSVGETVTITCRASENIYSNLAWYQQKQGKSPQLLVYGATNLADGVPSRFSGSGSGTQYSLKINSLQSEDFGSYYCQHFWGTPWTFGGGTKLEIK	binds
Beacon2-D5 (antibody, V domains shown, Mouse-derived; tested at the screening stage) VH: EVQLVESGGGLVQPKGSLKLSCAASGFTFNTYAMNWVRQAPGKGLEWVARIRSKSNNYATYYADSVKDRFTISRDDSQSMLYLQMNNLKTEDTAMYYCLSHGAFAYWGQGTLVTVSA VL: not shown	binds
CNE-6H7-G7 (antibody, V domains shown, Mouse-derived; tested at the screening stage) VH: EVQLVESGGGLVQPKGSLKLSCAASGFSFNTYAMNWVRQAPGKGLEWVARIRSKSNNYGTYYADSVKDRFTISRDDSESMLYLKMNNLKTEDTAMYYCLSHGSSAYWGQGTLVTVSA VL: not shown	binds
CNE-6E10 (antibody, V domains shown, Mouse-derived) VH: EVQLVESGGGLVQPKGSLKLSCAASGFSFNTYAMNWVRQAPGKGLEWVARIRSKTNSYETYYADSVKDRFTISRDDSESMLYLQMNNLKTEDTAVYYCLSHGAFAYWGQGTLVTVSA VL: not shown	binds
CNF-2F8 (antibody, V domains shown, Mouse-derived; tested at the screening stage) VH: EVQLVESGGGLVQPKGSLKLSCAASGFSFQTYAMNWVRQAPGKGLEWVARIRSKRNNYATYYADSVKDRFSISRDDSENMLYLQMNNLKTEDTAMYYCLSHGAFAYWGQGTLVTVSA VL: not shown	binds
CNGs-1C1 (antibody, V domains shown, Mouse-derived; tested at the screening stage) VH: EVQLVESGGGLVRPKGSLKLSCAASGFSFNAYAMNWVRQAPGKGLEWVARIRSKSNNYATYYADSVKDRFTISRDDSESMLYLQMNNLKTEDTAMYYCLSHGAFAYWGQGTLVTVSA VL: not shown	binds
COXs-1B10 (antibody, V domains shown, Mouse antibody) VH: QVTLKESGPGILKASQTLSLTCSFSGFSLSTSGMGIGWIRQPSGKGPEWLAHIWWDDEKYYRPSLKSRLTVSKDTSRNQVFLNITSVDTTDSASYYCVQRTPGRFAYWGQGTLVTVST VL: DIVMTQSPSSLAVSIGQKVIMSCKSSQSLLSSRTQKNYLAWYQQKPGQSPKLLVYFASIRESGVPDRFTGSGSGTDFTLTISTVQAEDLAVYYCQQYFLTPYTFGGGTKLEIK	binds
CNGs-1B7 (antibody, V domains shown, Mouse-derived) VH: EVKLEESGGGLVRPGGSMKLSCVASGFTFSDYWMNWVRQSPEKGLEWLAQIRLNSGNYAARYAESVKGRFTISRDDSKNSVYLQMINLRAEDTGIYFCTSNAWLANWGQGTLVTVSA VL: DIVMTQTAPSVPVTPGESVSISCRSSKSLLHSNGNTYLYWFLQRPGQSPQRLIYSVSNLASGVPDRFSGRGSGTDFTLTISRVEAEDVGVYYCMQSLEYPYTFGGGTKLEIK	binds
